The results in this text go back to US20180127493A1.

For experiment [1], the target named is membrane-bound TNFalpha on stably transfected CHO cells (B-220 cells). Nature of the experiment: FACS, mixed beads with CHO-TNFα (B220) cells, Sample 4.
The target is the same in experiment [2]. The experiment can be described thus: FACS, beads with CHO-TNFα (B220) cells, Sample 2.
For experiment [3] the target is unchanged. The experiment can be described thus: FACS, anti-CD19 beads with TNFalpha-transfected CHO cells (FIG. 4, middle panel).

For “APC labeled unrelated antibody (anti-CD19), coated on beads”, the % bound beads in experiment [1] turned out to be 0.4%. Further, the % bound beads in experiment [2] stood at 0.9%. Further, in experiment [3], the # Events (cells bound to anti-CD19-APC beads) came to 6 events, the % Parent came out at 0.1% and the % Total was found to be 0.1%.
